Reference: IntAct's records for PubMed 31515488

B1: Caspase recruitment domain-containing protein 9 (Homo sapiens), Q9H257 (parent)
chain: MSDYENDDECWSVLEGFRVTLTSVIDPSRITPYLRQCKVLNPDDEEQVLSDPNLVIRKRKVGVLLDILQRTGHKGYVAFLESLELYYPQLYKKVTGKEPARVFSMIIDASGESGLTQLLMTEVMKLQKKVQDLTALLSSKDDFIKELRVKDSLLRKHQERVQRLKEECEAGSRELKRCKEENYDLAMRLAHQSEEKGAALMRNRDLQLEIDQLKHSLMKAEDDCKVERKHTLKLRHAMEQRPSQELLWELQQEKALLQARVQELEASVQEGKLDRSSPYIQVLEEDWRQALRDHQEQANTIFSLRKDLRQGEARRLRCMEEKEMFELQCLALRKDSKMYKDRIEAILLQMEEVAIERDQAIATREELHAQHARGLQEKDALRKQVRELGEKADELQLQVFQCEAQLLAVEGRLRRQQLETLVLSSDLEDGSPRRSQELSLPQDLEDTQLSDKGCLAGGGSPKQPFAALHQEQVLRNPHDAGLSSGEPPEKERRRLKESFENYRRKRALRKMQKGWRQGEEDRENTTGSDNTDTEGS
B2: Tuftelin-interacting protein 11 (Homo sapiens), Q9UBB9 (parent)
chain: MSLSHLYRDGEGRIDDDDDERENFEITDWDLQNEFNPNRQRHWQTKEEATYGVWAERDSDDERPSFGGKRARDYSAPVNFISAGLKKGAAEEAELEDSDDEEKPVKQDDFPKDFGPRKLKTGGNFKPSQKGFAGGTKSFMDFGSWERHTKGIGQKLLQKMGYVPGRGLGKNAQGIINPIEAKQRKGKGAVGAYGSERTTQSMQDFPVVDSEEEAEEEFQKELSQWRKDPSGSKKKPKYSYKTVEELKAKGRISKKLTAPQKELSQVKVIDMTGREQKVYYSYSQISHKHNVPDDGLPLQSQQLPQSGKEAKAPGFALPELEHNLQLLIDLTEQEIIQNDRQLQYERDMVVNLFHELEKMTEVLDHEERVISNLSKVLEMVEECERRMQPDCSNPLTLDECARIFETLQDKYYEEYRMSDRVDLAVAIVYPLMKEYFKEWDPLKDCTYGTEIISKWKSLLENDQLLSHGGQDLSADAFHRLIWEVWMPFVRNIVTQWQPRNCDPMVDFLDSWVHIIPVWILDNILDQLIFPKLQKEVENWNPLTDTVPIHSWIHPWLPLMQARLEPLYSPIRSKLSSALQKWHPSDSSAKLILQPWKDVFTPGSWEAFMVKNIVPKLGMCLGELVINPHQQHMDAFYWVIDWEGMISVSSLVGLLEKHFFPKWLQVLCSWLSNSPNYEEITKWYLGWKSMFSDQVLAHPSVKDKFNEALDIMNRAVSSNVGAYMQPGARENIAYLTHTERRKDFQYEAMQERREAENMAQRGIGVAASSVPMNFKDLIETKAEEHNIVFMPVIGKRHEGKQLYTFGRIVIYIDRGVVFVQGEKTWVPTSLQSLIDMAK
partner: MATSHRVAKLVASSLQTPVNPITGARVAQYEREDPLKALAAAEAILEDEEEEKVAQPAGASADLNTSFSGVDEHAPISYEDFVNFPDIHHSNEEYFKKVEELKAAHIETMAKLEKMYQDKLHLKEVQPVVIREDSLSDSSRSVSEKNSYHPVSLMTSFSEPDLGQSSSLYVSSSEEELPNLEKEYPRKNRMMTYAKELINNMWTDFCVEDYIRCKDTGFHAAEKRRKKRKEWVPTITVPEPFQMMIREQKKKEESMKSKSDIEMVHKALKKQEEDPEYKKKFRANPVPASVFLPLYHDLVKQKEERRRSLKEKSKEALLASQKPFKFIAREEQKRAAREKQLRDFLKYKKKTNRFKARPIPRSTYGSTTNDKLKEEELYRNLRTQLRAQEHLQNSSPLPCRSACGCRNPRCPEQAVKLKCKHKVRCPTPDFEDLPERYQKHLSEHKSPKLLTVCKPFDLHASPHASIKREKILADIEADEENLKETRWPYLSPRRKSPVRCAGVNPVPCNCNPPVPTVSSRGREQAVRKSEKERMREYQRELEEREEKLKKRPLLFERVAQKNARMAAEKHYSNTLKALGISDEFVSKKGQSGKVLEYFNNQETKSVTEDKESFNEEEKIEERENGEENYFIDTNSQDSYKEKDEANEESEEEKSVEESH
B3: Late cornified envelope protein 1B (Homo sapiens), Q5T7P3 (parent)
chain: MSCQQNQQQCQPPPKCIPKCPPKCLTPRCPPKCPPKCPPVSSCCSVSSGGCCGSSSGGSCGSSSGGCCSSGGGGCCLSHHRRRRSHCHRPQSSGCCSQPSGGSSCCGGGSGQHSGGCC
B4: Notch homolog 2 N-terminal-like protein A (Homo sapiens), Q7Z3S9 (parent)
chain: MCVTYHNGTGYCKCPEGFLGEYCQHRDPCEKNRCQNGGTCVAQAMLGKATCRCASGFTGEDCQYSTSHPCFVSRPCLNGGTCHMLSRDTYECTCQVGFTGKECQWTDACLSHPCANGSTCTTVANQFSCKCLTGFTGQKCETDVNECDIPGHCQHGGTCLNLPGSYQCQCLQGFTGQYCDSLYVPCAPSPCVNGGTCRQTGDFTFECNCLPETVRRGTELWERDREVWNGKEHDEN
partner: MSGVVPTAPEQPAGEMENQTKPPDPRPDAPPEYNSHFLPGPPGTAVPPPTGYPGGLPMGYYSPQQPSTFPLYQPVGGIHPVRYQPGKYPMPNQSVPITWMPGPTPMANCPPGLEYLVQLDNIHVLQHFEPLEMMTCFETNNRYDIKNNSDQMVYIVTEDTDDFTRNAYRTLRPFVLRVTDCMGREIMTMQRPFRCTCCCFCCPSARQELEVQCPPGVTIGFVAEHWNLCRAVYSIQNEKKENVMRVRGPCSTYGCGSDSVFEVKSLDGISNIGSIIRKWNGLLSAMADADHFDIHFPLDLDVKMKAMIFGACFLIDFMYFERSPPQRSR
B5: Dickkopf-related protein 1 (Homo sapiens), O94907 (parent)
chain: MMALGAAGATRVFVAMVAAALGGHPLLGVSATLNSVLNSNAIKNLPPPLGGAAGHPGSAVSAAPGILYPGGNKYQTIDNYQPYPCAEDEECGTDEYCASPTRGGDAGVQICLACRKRRKRCMRHAMCCPGNYCKNGICVSSDQNHFRGEIEETITESFGNDHSTLDGYSRRTTLSSKMYHTKGQEGSVCLRSSDCASGLCCARHFWSKICKPVLKEGQVCTKHRRKGSHGLEIFQRCYCGEGLSCRIQKDHHQASNSSRLHTCQRH
B6: Meiotic recombination protein DMC1/LIM15 homolog (Homo sapiens), Q14565 (parent)
chain: MKEDQVVAEEPGFQDEEESLFQDIDLLQKHGINVADIKKLKSVGICTIKGIQMTTRRALCNVKGLSEAKVDKIKEAANKLIEPGFLTAFEYSEKRKMVFHITTGSQEFDKLLGGGIESMAITEAFGEFRTGKTQLSHTLCVTAQLPGAGGYPGGKIIFIDTENTFRPDRLRDIADRFNVDHDAVLDNVLYARAYTSEHQMELLDYVAAKFHEEAGIFKLLIIDSIMALFRVDFSGRGELAERQQKLAQMLSRLQKISEEYNVAVFVTNQMTADPGATMTFQADPKKPIGGHILAHASTTRISLRKGRGELRIAKIYDSPEMPENEATFAITAGGIGDAKE

Variants of: B1
Details: with pak5_human PAK5, Q9P286
Chain of pak5_human PAK5, Q9P286 (Q9P286 whole entry, looked up): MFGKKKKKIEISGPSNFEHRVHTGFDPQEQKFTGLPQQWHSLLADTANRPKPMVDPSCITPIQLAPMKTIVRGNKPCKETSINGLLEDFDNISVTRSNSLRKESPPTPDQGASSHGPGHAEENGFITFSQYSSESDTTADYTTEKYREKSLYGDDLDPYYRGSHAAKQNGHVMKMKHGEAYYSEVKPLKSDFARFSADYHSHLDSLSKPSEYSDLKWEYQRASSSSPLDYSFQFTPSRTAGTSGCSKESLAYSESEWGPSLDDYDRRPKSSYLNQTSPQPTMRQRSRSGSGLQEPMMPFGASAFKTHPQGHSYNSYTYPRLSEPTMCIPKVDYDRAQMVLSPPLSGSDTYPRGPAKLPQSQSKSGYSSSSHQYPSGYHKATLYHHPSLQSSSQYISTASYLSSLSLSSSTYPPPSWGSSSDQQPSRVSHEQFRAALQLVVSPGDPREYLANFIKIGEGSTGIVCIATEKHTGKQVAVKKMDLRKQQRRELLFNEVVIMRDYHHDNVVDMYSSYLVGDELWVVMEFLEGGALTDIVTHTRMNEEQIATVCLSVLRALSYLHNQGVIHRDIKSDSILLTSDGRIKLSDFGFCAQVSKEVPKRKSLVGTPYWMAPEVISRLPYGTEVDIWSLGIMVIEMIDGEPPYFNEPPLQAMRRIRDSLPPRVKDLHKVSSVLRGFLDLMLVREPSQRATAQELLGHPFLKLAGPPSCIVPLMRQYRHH

Q: V385L was tested. Which “effect of a mutation on the interaction” value did it give?
A: Its value is “with no effect”.

Variants of: B1
Details: with zn572_human ZNF572, Q7Z3I7
Chain of zn572_human ZNF572, Q7Z3I7 (Q7Z3I7 whole entry): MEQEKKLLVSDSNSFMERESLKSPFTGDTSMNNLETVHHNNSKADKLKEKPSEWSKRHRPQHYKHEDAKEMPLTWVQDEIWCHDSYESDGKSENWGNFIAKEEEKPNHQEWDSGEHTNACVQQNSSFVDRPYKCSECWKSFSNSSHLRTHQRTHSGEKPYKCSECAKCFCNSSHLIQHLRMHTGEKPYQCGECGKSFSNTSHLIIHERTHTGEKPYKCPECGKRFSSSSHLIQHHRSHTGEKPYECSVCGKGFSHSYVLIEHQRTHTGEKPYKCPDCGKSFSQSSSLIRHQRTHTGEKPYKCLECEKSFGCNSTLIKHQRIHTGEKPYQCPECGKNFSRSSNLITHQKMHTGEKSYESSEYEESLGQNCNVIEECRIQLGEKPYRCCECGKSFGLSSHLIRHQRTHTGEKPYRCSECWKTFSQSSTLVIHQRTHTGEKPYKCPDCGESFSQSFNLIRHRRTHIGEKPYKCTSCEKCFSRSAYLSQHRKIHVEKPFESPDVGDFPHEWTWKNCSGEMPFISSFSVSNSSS

Q: Which “effect of a mutation on the interaction” value does the source give for V385L here?
A: Its value is “disrupting interaction strength”.

Variants of: B2
Details: with FAM161A

Q: S688L was tested. Which “effect of a mutation on the interaction” value did it give?
A: The value was “with no effect”.

Q: For R8Q, which “effect of a mutation on the interaction” value is on record?
A: The value was “with no effect”.

Variants of: B3
Details: with rgs20_human RGS20, O76081
Chain of rgs20_human RGS20, O76081 (O76081 whole entry): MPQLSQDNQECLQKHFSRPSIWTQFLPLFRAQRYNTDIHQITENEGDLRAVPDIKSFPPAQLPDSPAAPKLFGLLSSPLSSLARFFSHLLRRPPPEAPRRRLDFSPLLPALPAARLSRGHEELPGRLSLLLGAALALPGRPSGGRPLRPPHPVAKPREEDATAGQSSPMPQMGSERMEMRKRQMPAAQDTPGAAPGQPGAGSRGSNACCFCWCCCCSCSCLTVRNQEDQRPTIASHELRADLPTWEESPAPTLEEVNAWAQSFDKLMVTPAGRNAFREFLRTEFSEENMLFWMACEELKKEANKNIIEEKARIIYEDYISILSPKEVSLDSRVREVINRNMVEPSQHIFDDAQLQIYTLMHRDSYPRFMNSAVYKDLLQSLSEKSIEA

Q: How did the “effect of a mutation on the interaction” value turn out when R83H was run?
A: Its value is “with no effect”.

Variants of: B3
Details: with kra32_human KRTAP3-2, Q9BYR7
Chain of kra32_human KRTAP3-2, Q9BYR7 (Q9BYR7 whole entry): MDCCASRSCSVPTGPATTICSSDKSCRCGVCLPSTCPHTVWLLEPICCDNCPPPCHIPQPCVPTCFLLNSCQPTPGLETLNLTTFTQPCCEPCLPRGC

Q: R83H was tested. Which “effect of a mutation on the interaction” value did it give?
A: Its value is “with no effect”.

Variants of: B3
Details: with hxa1_human HOXA1, P49639
Chain of hxa1_human HOXA1, P49639 (P49639 whole entry): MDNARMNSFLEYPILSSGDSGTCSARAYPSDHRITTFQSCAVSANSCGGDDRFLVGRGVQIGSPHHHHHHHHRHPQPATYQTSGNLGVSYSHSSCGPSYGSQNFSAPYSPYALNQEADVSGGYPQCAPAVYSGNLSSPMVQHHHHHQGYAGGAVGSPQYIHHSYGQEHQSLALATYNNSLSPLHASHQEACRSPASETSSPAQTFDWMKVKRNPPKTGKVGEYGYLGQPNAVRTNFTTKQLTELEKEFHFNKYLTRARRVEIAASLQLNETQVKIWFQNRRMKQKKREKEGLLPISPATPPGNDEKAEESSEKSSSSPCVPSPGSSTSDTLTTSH

Q: How did the “effect of a mutation on the interaction” value turn out when C51Y was run?
A: The value was “with no effect”.

Q: How did the “effect of a mutation on the interaction” value turn out when G108E was run?
A: Its value is “with no effect”.

Q: How did the “effect of a mutation on the interaction” value turn out when H113Q was run?
A: Its value is “with no effect”.

Variants of: B3
Details: with nt2na_human NOTCH2NLA

Q: How did the “effect of a mutation on the interaction” value turn out when C51Y was run?
A: Its value is “with no effect”.

Q: Which “effect of a mutation on the interaction” value does the source give for G108E here?
A: Its value is “with no effect”.

Q: H113Q was tested. Which “effect of a mutation on the interaction” value did it give?
A: Its value is “with no effect”.

Variants of: B3
Details: with kr101_human KRTAP10-1, P60331
Target sequence in this assay (P60331 whole entry): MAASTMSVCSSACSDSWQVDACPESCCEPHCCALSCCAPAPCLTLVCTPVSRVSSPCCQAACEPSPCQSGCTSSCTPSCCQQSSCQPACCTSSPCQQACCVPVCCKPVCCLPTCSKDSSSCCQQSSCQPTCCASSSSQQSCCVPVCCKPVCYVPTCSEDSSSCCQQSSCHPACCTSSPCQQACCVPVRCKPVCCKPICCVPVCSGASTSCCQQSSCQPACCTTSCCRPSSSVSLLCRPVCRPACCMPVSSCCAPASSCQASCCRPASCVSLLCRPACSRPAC

Q: With C51Y as the variant, how does the “effect of a mutation on the interaction” value read?
A: The value was “with no effect”.

Q: With G108E as the variant, how does the “effect of a mutation on the interaction” value read?
A: The value was “with no effect”.

Q: H113Q was tested. Which “effect of a mutation on the interaction” value did it give?
A: The value was “with no effect”.

Variants of: B3
Details: with otx1_human OTX1, P32242
Chain of otx1_human OTX1, P32242 (P32242 whole entry): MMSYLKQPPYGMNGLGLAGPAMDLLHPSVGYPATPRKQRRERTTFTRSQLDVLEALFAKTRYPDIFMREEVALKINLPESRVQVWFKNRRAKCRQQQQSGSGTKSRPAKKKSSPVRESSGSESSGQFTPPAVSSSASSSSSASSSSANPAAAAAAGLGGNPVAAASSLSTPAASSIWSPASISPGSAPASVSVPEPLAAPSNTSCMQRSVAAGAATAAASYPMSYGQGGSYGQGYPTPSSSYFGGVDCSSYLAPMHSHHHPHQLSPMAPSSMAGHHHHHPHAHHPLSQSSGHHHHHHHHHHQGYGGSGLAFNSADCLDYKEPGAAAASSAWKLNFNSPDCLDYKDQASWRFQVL

Q: Which “effect of a mutation on the interaction” value does the source give for C51Y here?
A: The value was “with no effect”.

Q: Which “effect of a mutation on the interaction” value does the source give for G108E here?
A: The value was “with no effect”.

Q: For H113Q, which “effect of a mutation on the interaction” value is on record?
A: Its value is “with no effect”.

Variants of: B4
Details: with pls4_human PLSCR4, Q9NRQ2

Q: With R74Q as the variant, how does the “effect of a mutation on the interaction” value read?
A: Its value is “with no effect”.

Q: A115T was tested. Which “effect of a mutation on the interaction” value did it give?
A: Its value is “with no effect”.

Variants of: B5
Details: with kr101_human KRTAP10-1, P60331
Target sequence in this assay (P60331 whole entry): as the sequence (P60331 whole entry) above

Q: Which “effect of a mutation on the interaction” value does the source give for S207Y here?
A: Its value is “with no effect”.

Variants of: B5
Details: with mdfi_human MDFI

Q: How did the “effect of a mutation on the interaction” value turn out when S207Y was run?
A: The value was “with no effect”.

Variants of: B6
Details: with gors2_human GORASP2, Q9H8Y8

Q: With M200V as the variant, how does the “effect of a mutation on the interaction” value read?
A: Its value is “with no effect”.

Q: How did the “effect of a mutation on the interaction” value turn out when I288T was run?
A: The value was “with no effect”.

Variants of: B6
Details: with sdcb1_human SDCBP

Q: How did the “effect of a mutation on the interaction” value turn out when M200V was run?
A: The value was “disrupting interaction strength”.

Q: Which “effect of a mutation on the interaction” value does the source give for I288T here?
A: The value was “disrupting interaction strength”.

Variants of: B6
Details: with kcd17_human KCTD17, Q8N5Z5
Chain of kcd17_human KCTD17, Q8N5Z5 (Q8N5Z5 whole entry): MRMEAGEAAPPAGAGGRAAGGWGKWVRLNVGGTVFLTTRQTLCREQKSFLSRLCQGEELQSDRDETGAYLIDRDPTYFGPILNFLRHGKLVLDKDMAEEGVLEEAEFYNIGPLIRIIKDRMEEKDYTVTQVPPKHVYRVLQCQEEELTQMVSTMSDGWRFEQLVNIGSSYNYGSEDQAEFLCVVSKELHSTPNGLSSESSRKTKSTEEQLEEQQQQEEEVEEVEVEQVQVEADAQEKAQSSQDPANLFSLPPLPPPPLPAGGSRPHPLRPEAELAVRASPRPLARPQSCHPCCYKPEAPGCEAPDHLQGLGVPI

Q: M200V was tested. Which “effect of a mutation on the interaction” value did it give?
A: The value was “disrupting interaction strength”.

Variants of: B6
Details: with psa3_human PSMA3, P25788
Chain of psa3_human PSMA3, P25788 (P25788 whole entry): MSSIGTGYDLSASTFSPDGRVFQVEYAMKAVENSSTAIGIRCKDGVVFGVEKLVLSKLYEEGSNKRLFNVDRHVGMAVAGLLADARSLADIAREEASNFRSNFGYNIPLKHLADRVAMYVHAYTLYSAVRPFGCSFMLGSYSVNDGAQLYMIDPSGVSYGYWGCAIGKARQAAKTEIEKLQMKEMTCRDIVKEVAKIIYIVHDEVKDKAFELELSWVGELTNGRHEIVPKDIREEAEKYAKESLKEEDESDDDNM

Q: With M200V as the variant, how does the “effect of a mutation on the interaction” value read?
A: The value was “with no effect”.

Q: How did the “effect of a mutation on the interaction” value turn out when I288T was run?
A: The value was “disrupting interaction strength”.
